Source: US20220074941A1, “HSP90 COMBINATION THERAPY” (Sloan-Kettering Institute for Cancer Research, priority 2011, published 2022)

Tests used:
[1] = test system: Hsp90 complexes in K562 cell extract; assay: Nano-LC-MS/MS of PU-beads pull-downs; assay type: binding; conditions: protein identified in PU-beads pull-down of K562 cell extract, QSTAR-Elite QTof MS
Method in brief: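 Lysates pre-cleared overnight at 4 °C with control beads, then pulled down with PU-beads or control beads; eluted proteins (2% SDS boil) gel-separated and analysed by nano LC-MS/MS on a QTof. Mascot identification (p<0.05), spectral counts and sequence coverage evaluated in Scaffold.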

[2] = test system: Hsp90 complexes in Mia-PaCa-2 cell extract; assay: Nano-LC-MS/MS of PU-beads pull-downs; assay type: binding, human; conditions: protein identified in PU-beads pull-down of Mia-PaCa-2 cell extract; QSTAR-Elite QTof MS
Method in brief: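 Lysates pre-cleared overnight at 4 °C with control beads underwent PU-bead pull-down; bound proteins were SDS-eluted, gel-separated, digested and analyzed by nano-LC-MS/MS on a QTof. Identifications used significance p<0.05, 0.4 Da tolerances and one missed cleavage; unique peptide (spectral) counts and sequence coverage were reported.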

Molecule	Number of Assigned Spectra, K562 Prep 1 [1]	Number of Assigned Spectra, K562 Prep 2 [1]	Number of Assigned Spectra, Mia-Paca 2 [2]
NUP160 (protein, UniProt Q12769 1-1436, looked up) Nuclear pore complex protein …: MLHLSAAPPAPPPEVTATARPCLCSVGRRGDGGKMAAAGALERSFVELSGAERERPRHFREFTVCSIGTANAVAGAVKYSESAGGFYYVESGKLFSVTRNRFIHWKTSGDTLELMEESLDINLLNNAIRLKFQNCSVLPGGVYVSETQNRVIILMLTNQTVHRLLLPHPSRMYRSELVVDSQMQSIFTDIGKVDFTDPCNYQLIPAVPGISPNSTASTAWLSSDGEALFALPCASGGIFVLKLPPYDIPGMVSVVELKQSSVMQRLLTGWMPTAIRGDQSPSDRPLSLAVHCVEHDAFIFALCQDHKLRMWSYKEQMCLMVADMLEYVPVKKDLRLTAGTGHKLRLAYSPTMGLYLGIYMHAPKRGQFCIFQLVSTESNRYSLDHISSLFTSQETLIDFALTSTDIWALWHDAENQTVVKYINFEHNVAGQWNPVFMQPLPEEEIVIRDDQDPREMYLQSLFTPGQFTNEALCKALQIFCRGTERNLDLSWSELKKEVTLAVENELQGSVTEYEFSQEEFRNLQQEFWCKFYACCLQYQEALSHPLALHLNPHTNMVCLLKKGYLSFLIPSSLVDHLYLLPYENLLTEDETTISDDVDIARDVICLIKCLRLIEESVTVDMSVIMEMSCYNLQSPEKAAEQILEDMITIDVENVMEDICSKLQEIRNPIHAIGLLIREMDYETEVEMEKGFNPAQPLNIRMNLTQLYGSNTAGYIVCRGVHKIASTRFLICRDLLILQQLLMRLGDAVIWGTGQLFQAQQDLLHRTAPLLLSYYLIKWGSECLATDVPLDTLESNLQHLSVLELTDSGALMANRFVSSPQTIVELFFQEVARKHIISHLFSQPKAPLSQTGLNWPEMITAITSYLLQLLWPSNPGCLFLECLMGNCQYVQLQDYIQLLHPWCQVNVGSCRFMLGRCYLVTGEGQKALECFCQAASEVGKEEFLDRLIRSEDGEIVSTPRLQYYDKVLRLLDVIGLPELVIQLATSAITEAGDDWKSQATLRTCIFKHHLDLGHNSQAYEALTQIPDSSRQLDCLRQLVVVLCERSQLQDLVEFPYVNLHNEVVGIIESRARAVDLMTHNYYELLYAFHIYRHNYRKAGTVMFEYGMRLGREVRTLRGLEKQGNCYLAALNCLRLIRPEYAWIVQPVSGAVYDRPGASPKRNHDGECTAAPTNRQIEILELEDLEKECSLARIRLTLAQHDPSAVAVAGSSSAEEMVTLLVQAGLFDTAISLCQTFKLPLTPVFEGLAFKCIKLQFGGEAAQAEAWAWLAANQLSSVITTKESSATDEAWRLLSTYLERYKVQNNLYHHCVINKLLSHGVPLPNWLINSYKKVDAAELLRLYLNYDLLEEAVDLVSEYVDAVLGKGHQYFGIEFPLSATAPMVWLPYSSIDQLLQALGENSANSHNIALSQKILDKLEDYQQKVDKATRDLLYRRTL	13	1	0
NOP14 (protein, UniProt P78316 1-857, looked up) Nucleolar protein 14: MAKAKKVGARRKASGAPAGARGGPAKANSNPFEVKVNRQKFQILGRKTRHDVGLPGVSRARALRKRTQTLLKEYKERDKSNVFRDKRFGEYNSNMSPEEKMMKRFALEQQRHHEKKSIYNLNEDEELTHYGQSLADIEKHNDIVDSDSDAEDRGTLSAELTAAHFGGGGGLLHKKTQQEGEEREKPKSRKELIEELIAKSKQEKRERQAQREDALELTEKLDQDWKEIQTLLSHKTPKSENRDKKEKPKPDAYDMMVRELGFEMKAQPSNRMKTEAELAKEEQEHLRKLEAERLRRMLGKDEDENVKKPKHMSADDLNDGFVLDKDDRRLLSYKDGKMNVEEDVQEEQSKEASDPESNEEEGDSSGGEDTEESDSPDSHLDLESNVESEEENEKPAKEQRQTPGKGLISGKERAGKATRDELPYTFAAPESYEELRSLLLGRSMEEQLLVVERIQKCNHPSLAEGNKAKLEKLFGFLLEYVGDLATDDPPDLTVIDKLVVHLYHLCQMFPESASDAIKFVLRDAMHEMEEMIETKGRAALPGLDVLIYLKITGLLFPTSDFWHPVVTPALVCLSQLLTKCPILSLQDVVKGLFVCCLFLEYVALSQRFIPELINFLLGILYIATPNKASQGSTLVHPFRALGKNSELLVVSAREDVATWQQSSLSLRWASRLRAPTSTEANHIRLSCLAVGLALLKRCVLMYGSLPSFHAIMGPLQALLTDHLADCSHPQELQELCQSTLTEMESQKQLCRPLTCEKSKPVPLKLFTPRLVKVLEFGRKQGSSKEEQERKRLIHKHKREFKGAVREIRKDNQFLARMQLSEIMERDAERKRKVKQLFNSLATQEGEWKALKRKKFKK	9	2	0
